Experimental data: patent US20080038257A1 (AVEO PHARMACEUTICALS, published 2008)
Positions count from the first letter of the chain named.

B1: anti-hHGF monoclonal antibody 1A3 (antibody, mouse IgG1, kappa, V domains shown)
VH: EVQLVESGGGLVQPGGSLKLSCAASEFTFSNYYMSWVRQTPEKRLQWVAYISPGGGSSYYPASVKGRFTISRDNAKNTLYLQMSSLKSEDTAMYYCARQGDGYYGDYAMDYWGQGTSVTVSS
VL: DIQMTQSPASLSVSVGETVTITCRASENIYSNLAWYQQKQGKSPQLLVYAATNLADGVPSRFSGSGSGTQFSLKINSLQSEDFGTYYCQHFWGTPYTFGGGTKLEIKR
B2: anti-hHGF monoclonal antibody 1F3 (antibody, mouse IgG1, kappa, V domains shown)
VH: B1 VH with P14S, E26G, Y33F, Q46E, P53S, S58T, A62D, A97V
VL: B1 VL with A50D, N53H, A55P, T85S, K103R
B3: anti-hHGF monoclonal antibody 1D3 (antibody, mouse IgG1, kappa, V domains shown)
VH: B1 VH with E26G, N31D, Q46E, P53S, S58T, A62D, M93I, A97V, T119I
VL: B1 VL with A25T, V48I, K74R, T85R
B4: anti-hHGF monoclonal antibody 3A12 (antibody, mouse IgG1, kappa, V domains shown)
VH: B1 VH with L20I, E26G, Y33F, Q46E, P53S, S58T, A62D, S84N, A97V
VL: B1 VL with S31I, Y49H, N53K, F71Y, T85S
B5: anti-hHGF monoclonal antibody 3B6 (antibody, mouse IgG1, kappa, V domains shown)
VH: QVQLQQSGAELVRPGSSVKISCKASGYVFSSYWMNWVKQRPGQGLEWIGQIYPGDGDSNYNGNFKGKATLTADKSSSTAYMQLSSLTSEDSAVYFCASQLGLRENYFDYWGQGTTLTVSS
VL: DIKMTQSPSSMYASLGERVTITCKASQDIKSYLSWFQQKPGKSPKTLIYRVNRLVDGVPSRFSGSGSGQDSSLTITSLENEDMGIYYCLQYDEFPFTFGGGTKLEIKR
B6: anti-hHGF monoclonal antibody 2B8 (antibody, mouse IgG1, kappa)
heavy: QVQLQQPGAELVKPGTSVKLSCKASGYTFTTYWMHWVNQRPGQGLEWIGEINPTNGHTNYNEKFKSKATLTVDKSSSTAYMQLSSLTSEDSAVYYCARNYVGSIFDYWGQGTTLTVSSAKTTPPSVYPLAPGSAAQTNSMVTLGCLVKGYFPEPVTVTWNSGSLSSGVHTFPAVLQSDLYTLSSSVTVPSSTWPSETVTCNVAHPASSTKVDKKIVPRDCGCKPCICTVPEVSSVFIFPPKPKDVLTITLTPKVTCVVVDISKDDPEVQFSWFVDDVEVHTAQTQPREEQFNSTFRSVSELPIMHQDWLNGKEFKCRVNSAAFPAPIEKTISKTKGRPKAPQVYTIPPPKEQMAKDKVSLTCMITDFFPEDITVEWQWNGQPAENYKNTQPIMDTDGSYFVYSKLNVQKSNWEAGNTFTCSVLHEGLHNHHTEKSLSHSPGK
light: NIVMTQSPKSMSMSVGERVTLSCKASENVVSYVSWYQQKPAQSPKLLIYGASNRNTGVPDRFTGSGSATDFTLTISSVRAEDLADYHCGQSYNYPYTFGGGTRLEIKRADAAPTVSIFPPSSEQLTSGGASVVCFLNNFYPKDINVKWKIDGSERQNGVLNSWTDQDSKDSTYSMSSTLTLTKDEYERHNSYTCEATHKTSTSPIVKSFNRNEC
B7: anti-hHGF monoclonal antibody 3D11 (antibody, mouse IgG1, kappa, V domains shown)
VH: QVQLKESGPGLVAPSQSLSITCTVSGFSLTSYSLHWVRQPPGKGLEWLGVIWAGGNTNYNSSLMSRLTIRKDNSKSQVFLKMNSLQTDDTAMYYCARERFAYWGQGTLVTVSA
VL: QIVLTQSPAIMSAYPGEKVTMTCSASSSVSYMHWYQQKSGTSPKRWIYDTSKLASGVPARFSGSGSGTSYSLTISSMEAEDAATYYCQQWSSNPLTFGAGTKLELKR
B8: anti-hHGF monoclonal antibody 2F8 (antibody, mouse IgG1, kappa, V domains shown)
VH: QVQLKQSGAELVRPGTSVKMSCKASGYTFTTYYIHWVNQRPGQGLEWIGKIGPGSGSTYYNEMFKDKATLTVDTSSSTAYMQLSSLTSDDSAVYFCARRGLGRGFDYWGQGTTLTVSS
VL: DIVLTQSPASLAVSLGQRATISCKASQSVDYDGNSYINWYQQKPGQPPKVLIYVASNLESGIPARFSGSGSGTDFTLNIHPVEEEDAATYYCQQSIEDPPTFGAGTKLELKR
B9: HE2B8-1 (LR2B8HC + IgG1 G1m(3) allele 1 plus LR2B8LC + Kappa Km(3) allele 1) (antibody, V domains shown)
VH: QVQLVQPGAEVVKPGTSVKLSCKASGYTFTTYWMHWVNQAPGQGLEWIGEINPTNGHTNYNEKFKGKATLTVDKSTSTAYMELSSLRSEDTAVYYCARNYVGSIFDYWGQGTLLTVSS
VL: DIVMTQSPDSMAMSVGERVTLNCKASENVVSYVSWYQQKPGQSPKLLIYGASNRNTGVPDRFSGSGSATDFTLTISSVQAEDVADYHCGQSYNYPYTFGQGTKLEIKR
B10: HE2B8-3 (LRMR2B8HC + IgG1 G1m(3) allele 1 plus LR2B8LC + Kappa Km(3) allele 1) (antibody, V domains shown)
VH: B9 VH with V12K, N38R, E62Q, K65Q, K67R
VL: B9 VL
B11: HE2B8-4 (LRMR2B8HC + IgG1 G1m(3) allele 1 plus LRMR2B8LC + Kappa Km(3) allele 1) (antibody, V domains shown)
VH: B9 VH with V12K, N38R, E62Q, K65Q, K67R
VL: B9 VL with M11L, V15L, N55E, T56S
B12: HE2B8-2 (LR2B8HC + IgG1 G1m(3) allele 1 plus LRMR2B8LC + Kappa Km(3) allele 1) (antibody, V domains shown)
VH: B9 VH
VL: B9 VL with M11L, V15L, N55E, T56S
B13: sh2B8-9 (G1m(3)) = hu2B8 Hv5-51.1 + IgG1 constant G1m(3) allele 2 plus hu2B8 Kv1-39.1 + Kappa Km(3) allele 2 (antibody)
heavy: not shown
light: DIQMTQSPSSLSASVGDRVTITCKASENVVSYVSWYQQKPGKAPKLLIYGASNRNTGVPSRFSGSGSGTDFTLTISSLQPEDFATYYCGQSYNYPYTFGQGTKLEIKRTVAAPSVFIFPPSDEQLKSGTASVVCLLNNFYPREAKVQWKVDNALQSGNSQESVTEQDSKDSTYSLSSTLTLSKADYEKHKVYACEVTHQGLSSPVTKSFNRGEC

target: T1, recombinant human HGF (R&D Systems, Catalog No. 294-HGN-025) (human, UniProt P14210 32-728); test: cell-based or functional assay
T1 sequence (P14210 32-728 limits assumed): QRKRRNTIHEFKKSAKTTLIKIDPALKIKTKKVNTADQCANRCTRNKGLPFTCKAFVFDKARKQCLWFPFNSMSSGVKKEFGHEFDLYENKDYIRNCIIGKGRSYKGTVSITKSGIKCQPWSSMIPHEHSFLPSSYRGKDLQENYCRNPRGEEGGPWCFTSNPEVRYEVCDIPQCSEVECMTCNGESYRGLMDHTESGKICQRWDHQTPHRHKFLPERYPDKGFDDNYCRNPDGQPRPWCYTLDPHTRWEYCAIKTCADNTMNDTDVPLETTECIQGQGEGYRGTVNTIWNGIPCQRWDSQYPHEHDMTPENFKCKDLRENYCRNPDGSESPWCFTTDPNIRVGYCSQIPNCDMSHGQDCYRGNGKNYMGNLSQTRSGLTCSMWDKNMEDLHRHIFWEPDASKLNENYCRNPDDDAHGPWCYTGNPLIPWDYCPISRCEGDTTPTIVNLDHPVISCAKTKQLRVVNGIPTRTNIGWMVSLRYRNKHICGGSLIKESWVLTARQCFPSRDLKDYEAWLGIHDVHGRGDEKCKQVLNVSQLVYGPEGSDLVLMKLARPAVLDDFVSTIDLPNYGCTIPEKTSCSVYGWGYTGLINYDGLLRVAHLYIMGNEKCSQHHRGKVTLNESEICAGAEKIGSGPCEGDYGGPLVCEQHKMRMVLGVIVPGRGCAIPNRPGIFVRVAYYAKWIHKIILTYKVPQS

Row | IC50 (nM), HGF stimulated BrdU incorporation in 4MBr-5 cells [nM] | Binder
1 | 4.69 | B1
2 | 1.94 | B2
3 | 4.99 | B3
4 | 30.3 | B4
5 | 36.1 | B5
6 | 1.41 | B6
7 | 51.1 | B7
8 | 19.2 | B8

target: T1, recombinant human HGF (R&D Systems, …); test: cell-based or functional assay; remark: another data set of the same source

Row | EC50 in nM, HGF-stimulated c-Met phosphorylation in PC-3 cells, Average of Two Trials [nM] | Binder
9 | 0.684 | B1
10 | 1.19 | B2
11 | 0.984 | B3
12 | 2 | B4
13 | 1.01 | B5
14 | 0.287 | B6
15 | 2.28 | B7
16 | 1.39 | B8

target: T1, recombinant human HGF (R&D Systems, …); test: cell-based or functional assay; remark: another data set of the same source

Row | IC50 (nM), HGF stimulated BrdU incorporation in 4MBr-5 cells [nM] | Binder
17 | 0.47 | B9
18 | 0.55 | B10
19 | 0.58 | B11
20 | 0.66 | B12
21 | 0.52 | B13
22 | 0.86 | B6

target: T1, recombinant human HGF (R&D Systems, …); test: cell-based or functional assay; remark: another data set of the same source

Row | HGF-stimulated c-Met phosphorylation in PC-3 cells (assay of Example 9), Average of Two Trials [nM] | Binder
23 | 0.8 | B9
24 | 0.79 | B10
25 | 0.75 | B11
26 | 0.88 | B12
27 | 0.93 | B13
28 | 0.91 | B6
